{"source": "paper PMC4743056", "experiment_in_all_cases": "fluorescence polarization", "key": {"[1]": {"molecular_target": "hPRDM9A ZnF8-12 (allele A) (Homo sapiens, allele A, UniProt Q9NQV7 717-858)", "sequence (Q9NQV7 717-858)": "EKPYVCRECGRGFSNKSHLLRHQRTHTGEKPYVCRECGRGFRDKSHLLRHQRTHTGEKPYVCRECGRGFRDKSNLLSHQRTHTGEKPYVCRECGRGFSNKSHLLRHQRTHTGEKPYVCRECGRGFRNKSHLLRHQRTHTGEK"}, "hPRDM9A ZnF8-13": {"molecular_target": "hPRDM9A ZnF8-13 (Homo sapiens, allele A, UniProt Q9NQV7 717-894)", "sequence (Q9NQV7 717-894)": "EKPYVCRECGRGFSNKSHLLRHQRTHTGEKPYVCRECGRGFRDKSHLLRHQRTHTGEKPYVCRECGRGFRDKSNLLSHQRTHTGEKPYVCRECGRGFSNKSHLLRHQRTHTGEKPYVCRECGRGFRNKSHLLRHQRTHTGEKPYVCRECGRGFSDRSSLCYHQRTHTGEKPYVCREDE"}, "hPRDM9A ZnF8-11": {"molecular_target": "hPRDM9A ZnF8-11 (Homo sapiens, allele A, UniProt Q9NQV7 717-830)", "sequence (Q9NQV7 717-830)": "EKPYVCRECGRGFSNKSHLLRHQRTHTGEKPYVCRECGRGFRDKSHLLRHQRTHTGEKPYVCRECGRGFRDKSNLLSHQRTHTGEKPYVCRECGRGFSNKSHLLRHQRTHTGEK"}, "[2]": {"molecular_target": "hPRDM9 ZnF8-12 N789H (allele L20) (Homo sapiens, allele L20, UniProt Q9NQV7 717-858, N790H)", "sequence (Q9NQV7 717-858 N790H)": "as the sequence (Q9NQV7 717-858) above, with N74H counted along it"}}, "data": [{"binder": "THE1B with 5mC at position 17 bottom strand (dsDNA, 5-methylcytosine at bottom strand base 7 (C of G:C bp 17)) DNA 1: GAGGCCTCCCTAGCCACGTGGAAC DNA 2: GTTCCACGTGGCTAGGGAGGCCTC", "values": [{"measurement": "binding signal", "setting": "[1]", "value": "~1 fold (same as unmethylated)"}]}, {"binder": "THE1B 24-bp (dsDNA) DNA 1: GAGGCCTCCCTAGCCACGTGGAAC DNA 2: GTTCCACGTGGCTAGGGAGGCCTC", "values": [{"measurement": "binding signal", "setting": "hPRDM9A ZnF8-13", "value": "~1 fold (similar to ZnF8-12)"}, {"measurement": "binding signal", "setting": "hPRDM9A ZnF8-11", "value": "~12 fold lower affinity than ZnF8-12"}]}, {"binder": "THE1B T:A to C:G (dsDNA) DNA 1: GAGGCCTCCCCAGCCACGTGGAAC DNA 2: GTTCCACGTGGCTGGGGAGGCCTC", "values": [{"measurement": "binding result", "setting": "[2]", "value": "binds"}]}]}
